The target in one data set is T1, Vaccinia virus E3.
T1 chain: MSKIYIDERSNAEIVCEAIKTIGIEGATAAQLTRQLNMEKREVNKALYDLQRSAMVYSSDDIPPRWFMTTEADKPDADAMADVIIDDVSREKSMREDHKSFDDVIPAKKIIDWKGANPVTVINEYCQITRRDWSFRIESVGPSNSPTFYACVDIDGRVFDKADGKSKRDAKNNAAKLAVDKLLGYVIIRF

For a further data set, the target named is T2, Vaccinia virus K3.
T2 chain: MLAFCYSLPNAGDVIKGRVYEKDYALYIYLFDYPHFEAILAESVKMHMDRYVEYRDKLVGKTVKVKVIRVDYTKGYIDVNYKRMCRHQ

B1: RNA-dependent protein kinase (PKR) (protein)
chain: AGDLSAGFFMEELNTYRQKQGVVLKYQELPNSGPPHDRRFTFQVIIDGREFPEGEGRSKKEAKNAAAKLAVEILNKEKKAVSPLLLTTTNSSEGLSMGNYIGLINRIAQKKRLTVNYEQCASGVHGPEGFHYKCKMGQKEYSIGTGSTKQEAKQLAAKLAYLQILSEETSVKSDYLSSGSFATTCESQSNSLVTSTLASESSSEGDFSADTSEINSNSDSLNSSSLLMNGLRNNQRKAKRSLAPRFDLPDMKETKYTVDKRFGMDFKEIELIGSGGFGQVFKAKHRIDGKTYVIKRVKYNNEKAEREVKALAKLDHVNIVHYNGCWDGFDYDPETSDDSLESSDYDPENSKNSSRSKTKCLFIQMEFCDKGTLEQWIEKRRGEKLDKVLALELFEQITKGVDYIHSKKLIHRDLKPSNIFLVDTKQVKIGDFGLVTSLKNDGKRTRSKGTLRYMSPEQISSQDYGKEVDLYALGLILAELLHVCDTAFETSKFFTDLRDGIISDIFDKKEKTLLQKLLSKKPEDRPNTSEILRTLTVWKKSPEKNERHTC
As for B1, the “PKR autophosphorylation (Western blot with phospho-PKR specific antibody)” value with Vaccinia virus E3 was “E3 and K3 reduce PKR autophosphorylation”; in the data set with Vaccinia virus K3 it was “E3 and K3 reduce PKR autophosphorylation”.

The record behind these values is patent US20190269793.
